Data: patent US20180273587A1 (AILERON THERAPEUTICS, published 2018)
Positions of bridges follow the written chain, without caps; N, C: chain ends. Non-standard residues stand in square brackets, D forms with d. hPhe = N[C@@H](CCc1ccccc1)C(=O)O; R8 = C=CCCCCCC[C@@](C)(N)C(=O)O; S5 = C=CCCC[C@](C)(N)C(=O)O

Key:
Test in all cases: Ki; method not stated; unit not printed (nM per Table 6)
MCL-1 = molecular target: T1, MCL-1 (UniProt Q07820 172-327, limits assumed)
T1 construct: Target of the Ki columns; also called Myeloid cell leukemia 1
T1 sequence (Q07820 172-327 limits assumed): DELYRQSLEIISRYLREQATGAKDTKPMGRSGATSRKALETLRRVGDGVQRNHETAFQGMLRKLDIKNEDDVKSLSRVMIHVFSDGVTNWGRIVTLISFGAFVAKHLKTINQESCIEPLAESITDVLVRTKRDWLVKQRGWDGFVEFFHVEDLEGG

BCL-XL = molecular target: T2, BCL-XL (UniProt Q07817 1-209)
T2 construct: Target of the Ki columns
T2 sequence (Q07817 1-209): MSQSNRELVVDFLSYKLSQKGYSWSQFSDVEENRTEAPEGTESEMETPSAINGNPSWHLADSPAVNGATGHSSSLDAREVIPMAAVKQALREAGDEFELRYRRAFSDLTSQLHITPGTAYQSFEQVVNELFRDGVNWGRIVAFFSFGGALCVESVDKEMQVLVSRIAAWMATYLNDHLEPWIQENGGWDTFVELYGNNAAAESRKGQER

BCL-2 = molecular target: T3, BCL-2 (UniProt P10415 1-217, limits assumed)
T3 construct: Target of the Ki columns
T3 sequence (P10415 1-217 limits assumed): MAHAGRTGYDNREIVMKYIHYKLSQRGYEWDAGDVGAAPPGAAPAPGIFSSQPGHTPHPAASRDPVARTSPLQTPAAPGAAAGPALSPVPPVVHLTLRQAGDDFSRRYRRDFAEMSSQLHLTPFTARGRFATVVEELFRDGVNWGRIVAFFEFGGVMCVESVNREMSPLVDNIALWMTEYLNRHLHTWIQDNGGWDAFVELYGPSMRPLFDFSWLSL

Binder | Ki (MCL-1) | Ki (BCL-XL) | Ki (BCL-2)
Ac-IWIAQALR[R8]IGDA[hPhe]N[S5]YYA-NH2 (staple 9-16; SMILES CC[C@H](C)[C@H](NC(C)=O)C(=O)N[C@@H](Cc1c[nH]c2ccccc12)C(=O)N[C@H](C(=O)N[C@@H](C)C(=O)N[C@@H](CCC(N)=O)C(=O)N[C@@H](C)C(=O)N[C@@H](CC(C)C)C(=O)N[C@@H](CCCNC(=N)N)C(=O)N[C@]1(C)CCCCCCC=CCCC[C@@](C)(C(=O)N[C@@H](Cc2ccc(O)cc2)C(=O)N[C@@H](Cc2ccc(O)cc2)C(=O)N[C@@H](C)C(N)=O)NC(=O)[C@H](CC(N)=O)NC(=O)[C@H](CCc2ccccc2)NC(=O)[C@H](C)NC(=O)[C@H](CC(=O)O)NC(=O)CNC(=O)[C@H]([C@@H](C)CC)NC1=O)[C@@H](C)CC) [SEQ ID NO: 1743] | 2.7 nM | 16.6 nM | 38.9 nM
Ac-IWIALALR[R8]IGDAFN[S5]YYA-NH2 (staple 9-16; SMILES CC[C@H](C)[C@H](NC(C)=O)C(=O)N[C@@H](Cc1c[nH]c2ccccc12)C(=O)N[C@H](C(=O)N[C@@H](C)C(=O)N[C@@H](CC(C)C)C(=O)N[C@@H](C)C(=O)N[C@@H](CC(C)C)C(=O)N[C@@H](CCCNC(=N)N)C(=O)N[C@]1(C)CCCCCCC=CCCC[C@@](C)(C(=O)N[C@@H](Cc2ccc(O)cc2)C(=O)N[C@@H](Cc2ccc(O)cc2)C(=O)N[C@@H](C)C(N)=O)NC(=O)[C@H](CC(N)=O)NC(=O)[C@H](Cc2ccccc2)NC(=O)[C@H](C)NC(=O)[C@H](CC(=O)O)NC(=O)CNC(=O)[C@H]([C@@H](C)CC)NC1=O)[C@@H](C)CC) [SEQ ID NO: 1736] | 11.6 nM | 37.9 nM | 75.8 nM
IWIAQALRAIGDAANAYYA (N-terminal Ac; $r8 at 9 and $ at 16 (crosslinked); 2Nal at 14; C-terminal NH2) [SEQ ID NO: 1746] | 4.4 nM | 19.1 nM | 35.1 nM
Ac-IWIAQALR[R8]IGDAFN[S5]YAA-NH2 (staple 9-16; SMILES CC[C@H](C)[C@H](NC(C)=O)C(=O)N[C@@H](Cc1c[nH]c2ccccc12)C(=O)N[C@H](C(=O)N[C@@H](C)C(=O)N[C@@H](CCC(N)=O)C(=O)N[C@@H](C)C(=O)N[C@@H](CC(C)C)C(=O)N[C@@H](CCCNC(=N)N)C(=O)N[C@]1(C)CCCCCCC=CCCC[C@@](C)(C(=O)N[C@@H](Cc2ccc(O)cc2)C(=O)N[C@@H](C)C(=O)N[C@@H](C)C(N)=O)NC(=O)[C@H](CC(N)=O)NC(=O)[C@H](Cc2ccccc2)NC(=O)[C@H](C)NC(=O)[C@H](CC(=O)O)NC(=O)CNC(=O)[C@H]([C@@H](C)CC)NC1=O)[C@@H](C)CC) [SEQ ID NO: 1754] | 20.3 nM | 51.8 nM | 102 nM
Ac-IWIAQALR[R8]IGDAWN[S5]YYA-NH2 (staple 9-16; SMILES CC[C@H](C)[C@H](NC(C)=O)C(=O)N[C@@H](Cc1c[nH]c2ccccc12)C(=O)N[C@H](C(=O)N[C@@H](C)C(=O)N[C@@H](CCC(N)=O)C(=O)N[C@@H](C)C(=O)N[C@@H](CC(C)C)C(=O)N[C@@H](CCCNC(=N)N)C(=O)N[C@]1(C)CCCCCCC=CCCC[C@@](C)(C(=O)N[C@@H](Cc2ccc(O)cc2)C(=O)N[C@@H](Cc2ccc(O)cc2)C(=O)N[C@@H](C)C(N)=O)NC(=O)[C@H](CC(N)=O)NC(=O)[C@H](Cc2c[nH]c3ccccc23)NC(=O)[C@H](C)NC(=O)[C@H](CC(=O)O)NC(=O)CNC(=O)[C@H]([C@@H](C)CC)NC1=O)[C@@H](C)CC) [SEQ ID NO: 1742] | 2.3 nM | 14.5 nM | 17.7 nM
